First the molecules themselves.
B1: MOR020151 (antibody, human IgG1, lambda, L234A L235A, V domains shown)
VH: QVQLVESGGGLVKPGGSLRLSCAASGFTFSSYALSWVRQAPGKGLEWVGRIKSKTMGGTSDYAAPVKGRFTISRDDSKNTLYLQMNSLKTEDTAVYYCARDFWADHYYYFDYWGQGTLVTVSS
VL: DIALTQPASVSGSPGQSITISCTGTSSDVGYINYVNWYQQHPGKAPKLMIYEVSNRPSGVSNRFSGSKSGNTASLTISGLQAEDEADYYCASWDWYDNVVFGGGTKLTVLG
notes: also called MOR20151
B2: MOR020052 (antibody, human IgG1, lambda, L234A L235A, V domains shown)
VH: QVQLVQSGAEVKKPGSSVKVSCKASGGTFSDYAISWVRQAPGQGLEWMGGIIPGFGQANYAQKFQGRVTITADESTSTAYMELSSLRSEDTAVYYCAREPSPLYGPYSDYVMDPWGQGTLVTVSS
VL: B1 VL with I32F, Y34F, N36S, E52D, W93Y, D94G, Y96D, D97S, N98S, V99W
notes: also called MOR20052
B3: MOR021448 (antibody, V domains shown)
VH: QVQLVQSGAEVKKPGSSVKVSCKASGGTFSDYAISWVRQAPGQGLEWMGRVIRPYYGWTEYAQKFQGRVTITADESTSTAYMELSSLRSEDTAVYYCAREPSPLYGPYSDYVMDPWGQGTLVTVSS
VL: B1 VL with I32F, Y34F, N36S, E52D, W93Y, D94G, Y96D, D97S, N98S, V99W
notes: IgG (human IgG1f LALA); parent MOR20052 with the printed HCDR2 stretch exchanged
B4: MOR020133 (antibody, human IgG1, lambda, L234A L235A, V domains shown)
VH: QVQLVQSGAEVKKPGESLKISCKGSGYSFTNYWIAWVRQMPGKGLEWMGRIFPGDSTTTYSPSFQGQVTISADKSISTAYLQWSSLKASDTAMYYCARGKRGATHPTQYEGWEVYGFDPWGQGTLVTVSS
VL: DIELTQPPSVSVSPGQTASITCSGDALGGKYASWYQQKPGQAPVLVIYDDNKRPSGIPERFSGSNSGNTATLTISGTQAEDEADYYCQSWAFYSGVFGGGTKLTVLG
notes: also called MOR20133
B5: MOR020144 (antibody, human IgG1, lambda, L234A L235A, V domains shown)
VH: QVQLLESGGGLVQPGGSLRLSCAASGFTFSDYALHWVRQAPGKGLEWVSVISYSGGYTYYADSVKGRFTISRDNSKNTLYLQMNSLRAEDTAVYYCARSPGLTSYHDSWGQGTLVTVSS
VL: DIVLTQPPSVSGAPGQRVTISCSGSSSNIGSNYVSWYQQLPGTAPKLLIHSNSHRPSGVPDRFSGSKSGTSASLAITGLQAEDEADYYCQSWDYESERVVFGGGTKLTVLG
notes: also called MOR20144
B6: MOR020159 (antibody, human IgG1, kappa, L234A L235A, V domains shown)
VH: QVQLVQSGAEVKKPGSSVKVSCKASGGTFSDYAISWVRQAPGQGLEWMGGIVPIVGTANYAQKFQGRVTITADESTSTAYMELSSLRSEDTAVYYCARDSSTSYYYYFDYWGQGTLVTVSS
VL: DIQMTQSPSSLSASVGDRVTITCRASQDINSWLAWYQQKPGKAPKLLIYQASNLQSGVPSRFSGSGSGTDFTLTISSLQPEDFATYYCQQIDHTPFTFGQGTKVEIKR
notes: also called MOR20159
B7: MOR021455 (antibody, V domains shown)
VH: QVQLVQSGAEVKKPGSSVKVSCKASGGTFSSYAISWVRQAPGQGLEWMGRIIPQWAGTPEYAQKFQGRVTITADESTSTAYMELSSLRSEDTAVYYCARDPLYRSDYYYHWFDFWGQGTLVTVSS
VL: DIALTQPASVSGSPGQSITISCTGTSSDVGNFNYVSWYQQHPGKAPKLMIYGVNNRPSGVSNRFSGSKSGNTASLTISGLQAEDEADYYCAAYGWALDEVVFGGGTKLTVLG
notes: IgG (human IgG1f LALA); parent MOR20152 with the printed HCDR2 stretch exchanged
B8: MOR020148 (antibody, human IgG1, lambda, L234A L235A, V domains shown)
VH: QVQLLESGGGLVQSGGSLRLSCAASGFTFRSGAAMHWVRQAPGKGLEWVSGISSFSSSTDYADSVKGRFTISRDNSKNTLYLQMNSLRAEDTAVYYCARNFKYAMDYWGQGTLVTVSS
VL: DIALTQPASVSGSPGQSITISCTGTSSDVGSINYVSWYQQHPGKAPKMIYAVSYRPSGVSNRFSGSKSGNTASLTISGLQAEDEADYYCQVWDWRSDSRVFGGGTKLTVLG
notes: also called MOR20148

Changes are numbered by the printed parent chain.

The target in one test is T1, APP-Avi-soluble human LOX-1(61-273) (human, UniProt P78380 61-273). The test can be described thus: SET, IgG vs soluble human LOX-1. As for the experimental part: Affinity determination for anti-LOX-1 IgGs using Solution Equilibrium Titration (SET) was basically performed as described in the literature (Friguet et al., 1985 J Immunol Methods 77: 305-319). The assays were performed in a 96-well polypropylene plate (Thermo Scientific, Catalog no. AB-1127) using a constant concentration of LOX-1 antibody mixed with different concentrations of non-biotinylated human or cynomolgus monkey LOX-1 protein and incubated at 22° C. for 14 hours with constant shaking (300 rpm).
On a pre-blocked MSD plate (Meso Scale Discovery, catalog no. L21SA) biotinylated human or cynomolgus monkey soluble LOX-1 protein was immobilized and washed afterwards. The equilibrium binding reactions were then applied to the MSD plate with immobilized LOX-1 and incubated for 30 min. The unbound material was removed by washing the plate, and the captured antibody was detected by adding Sulfo-tagged goat anti-human IgG (Meso Scale Discovery, catalog no. R3AJ-1). After incubation and washing 1×MSD read buffer T(Meso Scale Discovery, catalog no. R92TC-2) was added and the plate was developed using a Sector Imager 6000 (Meso Scale Discovery). The data were transferred to Excel for analysis and plotted using GraphPad Prism v5. The KD values were determined by fitting the data to the following equation: […]
Molecule B1 displayed a Kd of 0.27 nM.
Same read-out and setting: to B2 belongs 0.5 nM.
The same measure, in the same setting: to B3 belongs 0.0003 nM.
B4 gave a Kd of 0.144 nM.
B5 displayed a Kd of 0.0002 nM.
The molecule B6 showed a Kd of 0.56 nM.
Molecule B7 came in with a Kd of 0.0003 nM.
In turn, B8 displayed a Kd of 6.5 nM.

Another test deals with T1, APP-Avi-soluble human LOX-1(61-273). The test can be described thus: competition ELISA: oxLDL binding to plate-bound biotinylated human sLOX-1. As for the experimental part:
NeutrAvidin 384 well plates were coated with 2.5 μg/ml biotinylated LOX-1 diluted in PBS. After blocking with 25% Block Ace (AbD Serotec, Cat#BUF029) in PBS, purified Fabs or IgGs diluted in PBS/1% BSA were added. Subsequently OxLDL (copper-sulfate oxidized LDL, Kalen Biomedical #770202) or MDA-LDL (Academy Biomedical, #20P-UMD-L102) ligand diluted in PBS/1% BSA were allowed to bind to coated LOX-1. Secondary antibody (HRP conjugated sheep anti ApoB IgG; The Binding Site) diluted 1:1,000 in PBS/1% BSA was added followed by addition of TMB substrate (Thermo Scientific). After 10 minutes 1M H2SO4 was added and absorbance was determined at 450 nm. During early screenings, Fab fragments were also tested in this oxLDL binding assay using Fab-containing crude E. coli lysates.
The ability of LOX-1 antibodies to inhibit oxLDL binding to LOX-1 protein was determined using the method described in Example 4. In addition to “high binding OxLDL” from Kalen Biomedical (catalog number 770212-7), which is generated by copper sulfate mediated oxidation of LDL, two other forms of modified LDL were tested in this assay: malondialdehyde modified LDL (Academy Bio-Medical Co. catalog number 20P-MD-L105) and hypochlorite modified LDL. Hypochlorite modified LDL was prepared according to the following procedure. Human LDL (Kalen Biomedical catalog number 770200-4) was diluted with PBS to a final concentration of 0.25 mg/mL. Sodium hypochlorite (NaOCI, JT Baker catalog number 9416-01) was then added to 0.1 mM final concentration. The solution was incubated at room temperate for 4 hours, then quenched by adding L-methionine to a final concentration of reaction by adding 5 μl of 100 mM Mehionine per 200 μl total volume.
For orientation: An ELISA detects its analyte on a solid surface through an enzyme-linked reagent.
The term IC50 denotes the midpoint of a concentration-inhibition curve. A higher IC50 goes with weaker potency in that assay. The molecule B1 returned an IC50 of 7 nM.
As to B2, the IC50 was determined as 12 nM.
The same measure, in the same setting: to B4 belongs 6 nM; to B5, 5 nM.
B6 registered an IC50 of 5 nM.
With B8, the IC50 was 9 nM. This IC50 lies about 1.8-fold higher than the previous one.

(Values after patent publication US20170260272A1 (Novartis, published 2017).)
